This is an account of results in patent publication US20240245800A1, “HIGHLY SPECIFIC RABBIT SINGLE -DOMAIN ANTIBODIES FOR DRUG DELIVERY IN IMMUNOTHERAPY APPLICATIONS” (TECHNOPHAGE, INVESTIGAÇÃO E DESENVOLVIMENTO EM …, priority 2021, published 2024).

The target of one test is T1, Human Topoisomerase I (Homo sapiens, UniProt P11387).
T1 construct: purchased Topogen
T1 sequence (P11387 1-765): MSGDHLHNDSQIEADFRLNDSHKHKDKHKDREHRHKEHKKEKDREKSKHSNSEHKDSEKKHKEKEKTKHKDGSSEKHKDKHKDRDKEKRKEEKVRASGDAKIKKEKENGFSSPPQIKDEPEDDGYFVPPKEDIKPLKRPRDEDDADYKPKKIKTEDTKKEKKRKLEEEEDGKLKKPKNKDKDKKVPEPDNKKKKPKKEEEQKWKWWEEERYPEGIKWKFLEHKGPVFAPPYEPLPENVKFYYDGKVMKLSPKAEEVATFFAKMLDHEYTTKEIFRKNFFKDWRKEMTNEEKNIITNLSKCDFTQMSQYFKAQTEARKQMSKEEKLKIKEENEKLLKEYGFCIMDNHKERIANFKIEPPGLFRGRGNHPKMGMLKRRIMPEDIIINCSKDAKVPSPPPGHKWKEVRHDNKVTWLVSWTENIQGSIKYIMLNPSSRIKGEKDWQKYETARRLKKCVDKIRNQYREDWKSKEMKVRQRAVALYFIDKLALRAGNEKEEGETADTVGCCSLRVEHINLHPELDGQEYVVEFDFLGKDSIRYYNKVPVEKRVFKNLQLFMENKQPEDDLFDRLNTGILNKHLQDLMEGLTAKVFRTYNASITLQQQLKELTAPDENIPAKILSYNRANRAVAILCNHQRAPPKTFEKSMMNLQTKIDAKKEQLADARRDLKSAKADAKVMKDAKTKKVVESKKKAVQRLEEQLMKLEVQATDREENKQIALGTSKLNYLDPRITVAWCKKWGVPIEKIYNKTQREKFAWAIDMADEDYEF
Nature of the test: DNA Topo I activity assay (Human Topoisomerase I Assay Kit). As to conditions: 10 U Topo I, supercoiled DNA, agarose gel. In kind it is biochemical. As for the experimental part: FIG. 11—Cytotoxic effects of C5-DAB-SN-38. To determine the effect of C5-DAB-SN-38 on CLBL-1 and Jurkat cells, a cell viability assay was performed using the WST-1 reagent. 6×10^4 cells were seeded and treated with increasing amounts of compound. After 48 h treatment, cell viability was assessed. […] B) On the other hand, ADC had no effect on Jurkat cells, proving the specificity of the ADC. C5 was used as control. Best-fit EC50 values of each formulation were calculated using GraphPad Prism software (version 9.2.0, San Diego, CA, USA) using the log (inhibitor) vs response (variable slope) function. D) Effects of C5-DAB-SN-38 on DNA TopoI activity. To evaluate the effects of C5-DAB-SN-38 on DNA Topo I, we evaluated its activity using the Human Topoisomerase I Assay Kit. After incubation of C5-DAB-SN-38 with 1× reaction buffer and 10 U of Topo I for 1 h at 37° C., the supercoiled DNA was added. To stop the reaction, stop loading buffer was added. DNA TopoI activity was visualized by 1% agarose gel electrophoresis […] with ethidium bromide. Relaxed DNA indicated TopoI activity while supercoiled DNA indicated an inhibition. […] Relaxed DNA and supercoiled DNA were used as positive/negative controls. C5 and SN-38 were also used as controls.
Topo I activity on VL-DAB-SN38 was determined using the Human Topoisomerase I Assay Kit (Topogen, CO, USA) according to the manufacturer's instructions. […]

The next test relates to CLBL-1 cells. Description: Flow cytometry binding of C5 VL sdAb to CLBL-1 cells. In kind it is cell-based, canine. As to conditions: 3 μM C5, 37° C., different timepoints. Here is the method: FIG. 8. Binding and internalization characterization of C5 VL sdAb. C5 binding and internalization properties against CLBL-1 cells were evaluated by cytometry and immunofluorescence. A) For flow cytometry analysis, 1×10^6 of CLBL-1 cells were incubated with Live/Dead reagents for 30 minutes. Then, 3 μM of C5 were incubated with the cells for different timepoints at 37° C. After, cells were washed, fixed, permeabilized, and incubated for 30 min with anti-HA antibody, washed twice and incubated with anti-rat Alexa Fluor-488. […] B) By contrast, no binding of C5 was detected with Jurkat cells. C) To confirm the binding of C5 to the CLBL-1 verified by flow cytometry, we evaluated its distribution on the cells by immunofluorescence assay. […] Representative microphotographs with C5 (green) and DAPI stained-nuclei (blue) are shown.
To evaluate the binding of the VL C5 to the CLBL-1 cells, a FACS analysis was performed. […]
The C5 VL sdAb binding and cellular internalization properties towards CLBL-1 cells were studied by cytometry analysis and immunofluorescence. […] Live/dead reagent was used to exclude dead cells and the background noise was also evaluated in the control with the secondary antibody (data not shown). To better characterize the binding of the C5 to the CLBL-1 cells, we further evaluated the internalization of the C5 sdAb on the cells using an immunofluorescence assay. […]

In another test the test system is Jurkat cells. Nature of the test: Immunofluorescence of C5 with Jurkat cells. In kind it is cell-based, human.

“Also recorded” adds a separate entry of the source.

B1: C5: rabbit derived anti-cNHL VL sdAb clone, SEQ. ID. 3; ^99mTc radiolabelled for biodistribution (antibody, listed as Oryctolagus cuniculus, V domains shown)
VL: ELDLTQTPSPVSASVGGTATINCQASQSVYNNYWWAWYQQRPGHPPKLLIYETSKLASGVPSRFKGSGSGTQFTLTIIDVQCDDAATYVCAGGYGTVIDNAFGGGTELEIL
modifications: 99mTc(CO)3 radiolabel
notes: ID; ^99mTc radiolabelled for biodistribution
For B1, the “effect on DNA Topo I activity” value in the test with Human Topoisomerase I is listed as “not able to alter enzyme activity”. For the same molecule, the “binding to CLBL-1 cells (flow cytometry)” value is on record as “specifically binds; also recorded: demonstrated to bind” in the test with CLBL-1 cells and “shown to bind to the cells, increasing its interaction with time” in the test with CLBL-1 cells (listed as VL C5). For the same molecule, the “fluorescence with Jurkat cells (immunofluorescence)” value in the test on Jurkat cells is “no detectable fluorescence”.
